Assay results published in paper PMC3217864.

Molecular target: CD91 (human (endogenous in PBMCs)) (UniProt Q07954)
UniProt Q07954, sequence (Q07954 20-4544): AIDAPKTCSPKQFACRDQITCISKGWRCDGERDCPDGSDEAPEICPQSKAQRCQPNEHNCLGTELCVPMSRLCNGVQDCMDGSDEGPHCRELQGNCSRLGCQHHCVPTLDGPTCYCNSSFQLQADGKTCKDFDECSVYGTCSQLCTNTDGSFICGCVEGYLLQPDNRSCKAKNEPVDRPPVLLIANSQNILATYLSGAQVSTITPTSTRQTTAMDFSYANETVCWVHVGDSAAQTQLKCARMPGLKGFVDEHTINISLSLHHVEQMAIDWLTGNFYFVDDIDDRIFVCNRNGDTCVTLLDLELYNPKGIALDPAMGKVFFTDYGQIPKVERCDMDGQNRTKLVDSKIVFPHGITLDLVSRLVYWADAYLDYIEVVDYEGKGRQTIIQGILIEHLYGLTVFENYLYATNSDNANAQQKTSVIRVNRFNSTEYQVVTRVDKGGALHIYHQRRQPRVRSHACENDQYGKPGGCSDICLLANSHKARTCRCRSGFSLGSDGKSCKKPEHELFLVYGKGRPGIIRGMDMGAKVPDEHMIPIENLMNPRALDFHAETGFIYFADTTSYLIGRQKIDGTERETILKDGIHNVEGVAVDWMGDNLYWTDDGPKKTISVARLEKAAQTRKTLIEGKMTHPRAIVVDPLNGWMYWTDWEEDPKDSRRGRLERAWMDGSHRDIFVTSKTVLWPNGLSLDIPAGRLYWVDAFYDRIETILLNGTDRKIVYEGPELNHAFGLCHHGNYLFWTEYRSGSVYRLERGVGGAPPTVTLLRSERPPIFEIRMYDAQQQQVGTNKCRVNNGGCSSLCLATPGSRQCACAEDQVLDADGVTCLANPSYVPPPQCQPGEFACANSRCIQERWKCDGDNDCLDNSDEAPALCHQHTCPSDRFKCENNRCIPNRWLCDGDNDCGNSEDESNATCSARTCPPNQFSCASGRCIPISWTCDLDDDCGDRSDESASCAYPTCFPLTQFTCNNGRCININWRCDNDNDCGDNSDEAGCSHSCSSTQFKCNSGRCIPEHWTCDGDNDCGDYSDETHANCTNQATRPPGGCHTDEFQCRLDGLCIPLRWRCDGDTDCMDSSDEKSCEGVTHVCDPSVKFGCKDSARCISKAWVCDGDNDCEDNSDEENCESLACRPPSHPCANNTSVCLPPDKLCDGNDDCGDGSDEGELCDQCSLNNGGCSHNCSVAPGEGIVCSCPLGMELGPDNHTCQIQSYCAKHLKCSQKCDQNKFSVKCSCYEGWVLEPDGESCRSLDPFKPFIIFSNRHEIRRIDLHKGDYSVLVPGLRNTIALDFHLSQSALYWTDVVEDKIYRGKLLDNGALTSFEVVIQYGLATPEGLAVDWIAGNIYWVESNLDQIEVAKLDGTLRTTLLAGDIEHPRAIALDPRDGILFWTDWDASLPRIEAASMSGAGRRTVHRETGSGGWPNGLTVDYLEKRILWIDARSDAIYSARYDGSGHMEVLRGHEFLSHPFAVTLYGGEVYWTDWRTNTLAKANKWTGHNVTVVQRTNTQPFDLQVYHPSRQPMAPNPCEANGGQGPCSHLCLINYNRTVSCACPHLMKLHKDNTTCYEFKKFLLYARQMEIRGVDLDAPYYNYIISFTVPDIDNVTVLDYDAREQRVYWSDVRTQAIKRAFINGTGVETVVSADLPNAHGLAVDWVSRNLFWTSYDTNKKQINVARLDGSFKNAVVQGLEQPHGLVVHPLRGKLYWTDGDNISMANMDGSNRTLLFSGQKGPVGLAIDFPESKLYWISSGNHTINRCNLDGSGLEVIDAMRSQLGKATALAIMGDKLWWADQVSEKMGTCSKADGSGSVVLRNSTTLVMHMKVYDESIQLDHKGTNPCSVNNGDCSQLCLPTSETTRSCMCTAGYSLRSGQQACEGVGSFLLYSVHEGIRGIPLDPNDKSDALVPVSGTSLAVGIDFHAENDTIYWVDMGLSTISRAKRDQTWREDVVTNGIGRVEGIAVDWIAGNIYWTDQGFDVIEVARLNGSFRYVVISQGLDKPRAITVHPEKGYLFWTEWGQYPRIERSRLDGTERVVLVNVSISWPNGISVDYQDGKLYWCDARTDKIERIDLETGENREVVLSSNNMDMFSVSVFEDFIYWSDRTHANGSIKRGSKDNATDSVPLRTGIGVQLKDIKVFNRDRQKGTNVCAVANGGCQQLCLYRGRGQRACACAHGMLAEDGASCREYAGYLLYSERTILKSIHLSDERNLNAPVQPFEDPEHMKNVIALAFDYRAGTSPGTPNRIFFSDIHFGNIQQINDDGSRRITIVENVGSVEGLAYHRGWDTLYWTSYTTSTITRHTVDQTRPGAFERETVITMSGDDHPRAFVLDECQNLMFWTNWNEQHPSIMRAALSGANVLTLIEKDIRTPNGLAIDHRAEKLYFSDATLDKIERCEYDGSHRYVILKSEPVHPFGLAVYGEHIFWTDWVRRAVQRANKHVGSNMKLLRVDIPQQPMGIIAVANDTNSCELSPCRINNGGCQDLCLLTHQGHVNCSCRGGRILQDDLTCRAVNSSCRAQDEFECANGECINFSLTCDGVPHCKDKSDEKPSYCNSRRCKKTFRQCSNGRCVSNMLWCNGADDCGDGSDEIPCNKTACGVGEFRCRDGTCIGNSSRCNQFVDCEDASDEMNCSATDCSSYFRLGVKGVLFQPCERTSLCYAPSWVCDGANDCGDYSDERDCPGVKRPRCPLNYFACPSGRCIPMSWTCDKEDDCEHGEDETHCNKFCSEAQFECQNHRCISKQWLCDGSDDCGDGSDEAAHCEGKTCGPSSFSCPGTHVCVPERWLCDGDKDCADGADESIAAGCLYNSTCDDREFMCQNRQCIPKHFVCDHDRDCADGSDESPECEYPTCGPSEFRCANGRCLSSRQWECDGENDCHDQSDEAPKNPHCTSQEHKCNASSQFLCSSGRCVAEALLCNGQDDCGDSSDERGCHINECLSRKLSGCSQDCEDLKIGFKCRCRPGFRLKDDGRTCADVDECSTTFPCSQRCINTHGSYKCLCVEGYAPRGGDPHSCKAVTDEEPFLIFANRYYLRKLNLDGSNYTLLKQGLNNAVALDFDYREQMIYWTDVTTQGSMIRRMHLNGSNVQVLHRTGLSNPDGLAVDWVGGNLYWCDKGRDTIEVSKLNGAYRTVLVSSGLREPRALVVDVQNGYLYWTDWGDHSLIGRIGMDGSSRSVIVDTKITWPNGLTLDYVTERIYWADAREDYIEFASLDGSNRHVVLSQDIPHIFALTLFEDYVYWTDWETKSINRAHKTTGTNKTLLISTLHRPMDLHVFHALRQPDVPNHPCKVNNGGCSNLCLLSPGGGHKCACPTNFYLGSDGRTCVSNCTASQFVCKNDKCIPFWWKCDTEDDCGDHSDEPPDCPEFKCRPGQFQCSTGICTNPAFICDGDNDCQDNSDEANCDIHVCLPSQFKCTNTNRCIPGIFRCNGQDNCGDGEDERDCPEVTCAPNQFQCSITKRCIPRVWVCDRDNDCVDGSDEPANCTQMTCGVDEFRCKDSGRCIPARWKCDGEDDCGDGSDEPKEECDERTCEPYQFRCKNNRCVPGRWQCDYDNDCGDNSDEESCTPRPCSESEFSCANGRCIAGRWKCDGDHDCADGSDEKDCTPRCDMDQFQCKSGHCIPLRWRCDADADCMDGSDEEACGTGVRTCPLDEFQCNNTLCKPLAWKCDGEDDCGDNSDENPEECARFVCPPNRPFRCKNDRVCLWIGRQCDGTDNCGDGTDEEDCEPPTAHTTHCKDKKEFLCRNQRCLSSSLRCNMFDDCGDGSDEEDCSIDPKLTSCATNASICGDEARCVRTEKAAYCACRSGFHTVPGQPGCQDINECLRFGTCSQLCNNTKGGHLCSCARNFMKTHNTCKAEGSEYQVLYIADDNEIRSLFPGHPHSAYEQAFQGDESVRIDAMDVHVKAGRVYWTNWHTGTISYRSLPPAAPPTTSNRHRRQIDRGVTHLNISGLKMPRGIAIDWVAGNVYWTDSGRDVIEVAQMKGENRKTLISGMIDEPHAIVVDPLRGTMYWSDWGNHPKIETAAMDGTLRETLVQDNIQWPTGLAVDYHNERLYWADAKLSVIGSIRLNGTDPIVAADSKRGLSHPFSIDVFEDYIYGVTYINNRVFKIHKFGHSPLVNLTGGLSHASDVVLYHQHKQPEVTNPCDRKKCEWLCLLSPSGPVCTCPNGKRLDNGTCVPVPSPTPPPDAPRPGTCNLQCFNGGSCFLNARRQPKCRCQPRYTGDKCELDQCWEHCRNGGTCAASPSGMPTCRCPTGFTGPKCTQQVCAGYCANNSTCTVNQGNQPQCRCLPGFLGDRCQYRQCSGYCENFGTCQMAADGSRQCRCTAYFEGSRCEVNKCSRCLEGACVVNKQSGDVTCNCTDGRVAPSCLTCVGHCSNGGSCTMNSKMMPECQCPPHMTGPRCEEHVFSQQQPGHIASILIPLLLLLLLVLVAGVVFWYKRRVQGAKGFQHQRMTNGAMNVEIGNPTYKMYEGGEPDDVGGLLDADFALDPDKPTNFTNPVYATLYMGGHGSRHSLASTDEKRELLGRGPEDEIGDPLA

With “HSP70/CMVpp65(495-503)-peptide complex (from UniProt P0DMV8 1-641)” as the substance, how does the reduction of proliferation of CD8+ T cells (CFSE dilution, 4 days) in PBMCs stimulated with 10 μg/ml HSP70/CMV-PC after 1 h pulse with 500 μg/ml α2-macroglobulin (A2M), the natural ligand of CD91 read?
Its reduction of proliferation of CD8+ T cells (CFSE dilution, 4 days) in PBMCs stimulated with 10 μg/ml HSP70/CMV-PC after 1 h pulse with 500 μg/ml α2-macroglobulin (A2M), the natural ligand of CD91 is 86.9%.
